Experimental data from article doi:10.1101/2020.04.16.045708 (bioRxiv, 2020).
Where a chain is given by its changes, count along the chain named. Values belong to the binder of their own block, whether it stands above or below them.

How the values were obtained:
C9ORF72 = biological target: T1, C9ORF72 (human, UniProt Q96LT7 1-481); test: AUC
T1 sequence: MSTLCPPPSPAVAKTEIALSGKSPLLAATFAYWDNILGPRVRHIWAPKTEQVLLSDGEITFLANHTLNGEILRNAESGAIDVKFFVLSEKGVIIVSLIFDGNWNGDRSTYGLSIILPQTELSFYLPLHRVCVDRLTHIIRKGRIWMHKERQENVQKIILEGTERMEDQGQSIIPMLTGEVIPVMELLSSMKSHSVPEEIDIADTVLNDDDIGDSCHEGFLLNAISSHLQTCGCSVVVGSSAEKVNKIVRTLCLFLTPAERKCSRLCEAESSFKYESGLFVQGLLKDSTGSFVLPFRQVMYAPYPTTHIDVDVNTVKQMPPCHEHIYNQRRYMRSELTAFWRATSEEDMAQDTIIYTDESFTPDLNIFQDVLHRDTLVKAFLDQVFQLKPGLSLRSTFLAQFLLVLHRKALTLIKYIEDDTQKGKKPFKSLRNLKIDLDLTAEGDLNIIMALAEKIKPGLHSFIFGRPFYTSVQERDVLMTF

C9ORF72-SMCR8^M2 complex = biological target: T2, C9ORF72-SMCR8^M2 complex (human, UniProt Q96LT7;Q8TEV9, T862A | F863A | H865A | L867A); test: pull-down
T2 sequence 1: T1 sequence
T2 sequence 2: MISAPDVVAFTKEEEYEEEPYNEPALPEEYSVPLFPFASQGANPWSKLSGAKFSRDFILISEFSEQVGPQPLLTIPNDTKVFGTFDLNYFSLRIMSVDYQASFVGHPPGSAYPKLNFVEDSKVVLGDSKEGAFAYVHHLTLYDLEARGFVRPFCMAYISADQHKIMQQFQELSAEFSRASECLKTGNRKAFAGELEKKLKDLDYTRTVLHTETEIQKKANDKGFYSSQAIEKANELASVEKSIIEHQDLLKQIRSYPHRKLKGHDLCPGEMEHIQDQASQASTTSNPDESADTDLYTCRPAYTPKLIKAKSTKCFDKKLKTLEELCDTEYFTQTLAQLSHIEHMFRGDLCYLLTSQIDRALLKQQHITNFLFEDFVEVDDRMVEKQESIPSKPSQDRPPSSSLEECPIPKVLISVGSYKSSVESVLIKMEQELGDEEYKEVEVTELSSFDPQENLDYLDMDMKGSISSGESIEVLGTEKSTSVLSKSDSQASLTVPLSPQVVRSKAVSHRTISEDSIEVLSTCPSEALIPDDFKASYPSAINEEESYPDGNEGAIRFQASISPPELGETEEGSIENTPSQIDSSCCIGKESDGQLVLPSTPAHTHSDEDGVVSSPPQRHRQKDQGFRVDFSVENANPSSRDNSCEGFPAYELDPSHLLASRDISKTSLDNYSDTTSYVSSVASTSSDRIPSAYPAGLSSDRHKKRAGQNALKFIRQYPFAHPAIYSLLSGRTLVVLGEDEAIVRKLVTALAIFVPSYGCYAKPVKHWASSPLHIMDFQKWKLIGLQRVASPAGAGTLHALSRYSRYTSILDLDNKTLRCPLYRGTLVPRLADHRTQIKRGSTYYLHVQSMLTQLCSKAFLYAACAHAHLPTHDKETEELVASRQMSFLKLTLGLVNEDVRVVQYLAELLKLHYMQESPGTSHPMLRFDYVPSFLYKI

C9ORF72-SMCR8^M3 complex = biological target: T3, C9ORF72-SMCR8^M3 complex (human, UniProt Q96LT7;Q8TEV9, E907A | K910A | Y913A | M914A); test: pull-down
T3 sequence 1: T1 sequence
T3 sequence 2: T2 sequence 2 with A862T, A863F, A865H, A867L, E907A, K910A, Y913A, M914A

C9ORF72-SMCR8 complex = biological target: T4, C9ORF72-SMCR8 complex (human, UniProt Q96LT7;Q8TEV9); test: SEC
T4 sequence 1: T1 sequence
T4 sequence 2: T2 sequence 2 with A862T, A863F, A865H, A867L

AUC = biological target: the molecule itself; test: AUC

binding result (C9ORF72): binds
B1: SMCR8 Longin domain (SMCR8^Longin), co-expressed with C9ORF72 (domain or fragment)
chain: MISAPDVVAFTKEEEYEEEPYNEPALPEEYSVPLFPFASQGANPWSKLSGAKFSRDFILISEFSEQVGPQPLLTIPNDTKVFGTFDLNYFSLRIMSVDYQASFVGHPPGSAYPKLNFVEDSKVVLGDSKEGAFAYVHHLTLYDLEARGFVRPFCMAYISADQHKIMQQFQELSAEFSRASECLKTGNRKAFAGELEKKLKDLDYTRTVLHTETEIQKKANDKGFYSSQAIEKANELASVEKSIIEHQDLLKQIRSYPHRKLKGHDLCPGEMEHIQDQASQASTTSNPDESADTDLYTCRPAYTPKLIKAKSTKCFDKKLKTLEELCDTEYFTQTLAQLSHIEHMFRGDL

binding result (C9ORF72-SMCR8^M2 complex): binds
binding result (C9ORF72-SMCR8^M3 complex): binds
stoichiometry N (C9ORF72-SMCR8 complex): 1
B2: WDR41 (WD40 repeat-containing protein 41) (natural protein)
chain: MLRWLIGGGREPQGLAEKSPLQTIGEEQTQNPYTELLVLKAHHDIVRFLVQLDDYRFASAGDDGIVVVWNAQTGEKLLELNGHTQKITAIITFPSLESCEEKNQLILTASADRTVIVWDGDTTRQVQRISCFQSTVKCLTVLQRLDVWLSGGNDLCVWNRKLDLLCKTSHLSDTGISALVEIPKNCVVAAVGKELIIFRLVAPTEGSLEWDILEVKRLLDHQDNILSLINVNDLSFVTGSHVGELIIWDALDWTMQAYERNFWDPSPQLDTQQEIKLCQKSNDISIHHFTCDEENVFAAVGRGLYVYSLQMKRVIACQKTAHDSNVLHVARLPNRQLISCSEDGSVRIWELREKQQLAAEPVPTGFFNMWGFGRVSKQASQPVKKQQENATSCSLELIGDLIGHSSSVEMFLYFEDHGLVTCSADHLIILWKNGERESGLRSLRLFQKLEENGDLYLAV

B3: C9ORF72-SMCR8-WDR41 complex (complex)
chain 1: T1 sequence
chain 2: T2 sequence 2 with A862T, A863F, A865H, A867L
chain 3: B2 chain
stoichiometry N (AUC): 2
